Assay results: publication PMC1952068
Values joined by “and” are separate entries in the source; they are usually repeats but may differ in a detail not shown here. Equal entries are not always repeated.

Assays:
Assay in all cases: fluorescence polarization
Conditions in all cases: 10 mM Tris-HCl pH 7.5, 50 mM NaCl, no Mg2+, room temperature; FP: 1 nM duplex, 0.1 mg/mL BSA, 20 min; EMSA: 250 nM enzyme, 15 min, 6% gel
R.Eco29kI Y49A = system: R.Eco29kI Y49A
R.Eco29kI wt = system: R.Eco29kI wt
R.Eco29kI R86A = system: R.Eco29kI R86A

Question: With “TTTTGGTACCGCGGCCGCAAGCTT (double strand) [24-bp duplex with Eco29kI site]” as the sequence, how does the Kd (R.Eco29kI Y49A) read?
Answer: Its Kd is 49 nM and 529 nM^n.

Question: What about the Kd (R.Eco29kI wt) of the same sequence?
Answer: Its Kd is 16 nM and 299 nM^n.

Question: What about the Kd (R.Eco29kI R86A) of the same sequence?
Answer: Its Kd is 21 nM and 344 nM^n.
